In general, Km refers to the concentration of substrate that gives half-maximal velocity.

Substrate in the data set: NC(=O)c1ccc[n+]([C@@H]2O[C@H](COP(=O)([O-])OP(=O)(O)OC[C@H]3O[C@@H](n4cnc5c(N)ncnc54)[C@H](O)[C@@H]3O)[C@@H](O)[C@H]2O)c1
The data set is described as follows: Activity at human SIRT1 assessed as ADP-ribosyltransferase activity.

B1: NAD-dependent protein deacetylase sirtuin-1 (Homo sapiens), Q96EB6 (protein)
chain: MADEAALALQPGGSPSAAGADREAASSPAGEPLRKRPRRDGPGLERSPGEPGGAAPEREVPAAARGCPGAAAAALWREAEAEAAAAGGEQEAQATAAAGEGDNGPGLQGPSREPPLADNLYDEDDDDEGEEEEEAAAAAIGYRDNLLFGDEIITNGFHSCESDEEDRASHASSSDWTPRPRIGPYTFVQQHLMIGTDPRTILKDLLPETIPPPELDDMTLWQIVINILSEPPKRKKRKDINTIEDAVKLLQECKKIIVLTGAGVSVSCGIPDFRSRDGIYARLAVDFPDLPDPQAMFDIEYFRKDPRPFFKFAKEIYPGQFQPSLCHKFIALSDKEGKLLRNYTQNIDTLEQVAGIQRIIQCHGSFATASCLICKYKVDCEAVRGDIFNQVVPRCPRCPADEPLAIMKPEIVFFGENLPEQFHRAMKYDKDEVDLLIVIGSSLKVRPVALIPSSIPHEVPQILINREPLPHLHFDVELLGDCDVIINELCHRLGGEYAKLCCNPVKLSEITEKPPRTQKELAYLSELPPTPLHVSEDSSSPERTSPPDSSVIVTLLDQAAKSNDDLDVSESKGCMEEKPQEVQTSRNVESIAEQMENPDLKNVGSSTGEKNERTSVAGTVRKCWPNRVAKEQISRRLDGNQYLFLPPNRYIFHGAEVYSDSEDDVLSSSSCGSNSDSGTCQSPSLEEPMEDESEIEEFYNGLEDEPDVPERAGGAGFGTDGDDQEAINEAISVKQEVTDMNYPSNKS
For the protein B1, the Km came to 80 µM.

(Values after ChEMBL document CHEMBL1773060, “Two-step synthesis of novel, bioactive derivatives of the ubiquitous cofactor nicotinamide adenine dinucleotide (NAD)” (J Med Chem, 2011).)
